{"source": "patent US5866114A", "about": "“Crystallization of M-CSFα” (Chiron Corporation, priority 1995, dated 1999)", "key": {"NFS-60 cells": {"tested_on": "NFS-60 cells", "assay": "M-CSF dependent NFS-60 bioassay (MTT readout, compared to M-CSF standard)", "type": "cell-based", "description": "Fractionated products were analyzed on reducing SDS-PAGE and stained with Coomassie, according to the method of Laemmli, Nature […] 227:680-685 (1970). Biological activity was determined using the M-CSF dependent NFS-60 bioassay (See Example 10 below). Antibody neutralization experiments were carried out by pre-incubating approximately 5,000 units of M-CSF dimer with varying dilutions of the neutralizing M-CSF 5H410 Mab (made to refolded E. coli CΔ150 M-CSFα dimer) prior to bioassay. (Halenbeck et al, Bio/Technology 7:710 (1989)\nThe purified mutein dimers were subjected to bioassay using NFS-60 cells which is an M-CSF dependent cell line which forms colonies in the presence of active M-CSF. Standards and purified mutein samples were serially diluted 1:2 in RPMI media (10% fetal bovine serum) in a 50 microliter volume in 96-well microtiter plates. 50 microliters NFS-60 cells (ATCC NO. CRL 1838), maintained in 4000U/ml M-CSF, washed 2×, and diluted to a concentration of 1×10^5 cell/ml, were added to each sample well. Plates were incubated at 37° C., 5% CO2 for 44 h. 5 mg/ml MTT dye was added to each sample and incubation continued for 4 h. 20% SDS was added to each sample. The plates were wrapped in foil and left overnight. The absorbance of each sample was read at 570 nm and compared to a standard of known M-CSF concentration."}, "[1]": {"tested_on": "cell surface M-CSF receptor (NFS60 cell M-CSF receptors)", "assay": "Radioligand displacement of 125I-M-CSF from NFS-60 cell M-CSF receptors (NFS-60 receptor competition assay)", "type": "binding", "conditions": "for IC50: 4° C., 20 hours, 300,000 NFS-60 cells, read-out: IC50 (concentration required to inhibit 50% of labeled M-CSF binding to the cells); for M-CSF receptor-binding ability: compared to parental M-CSFα; for fold decrease in binding affinity: relative to M-CSFα NΔ3CΔ158", "description": "FIG. 7 illustrates the competitive binding of M-CSF and M-CSF muteins to NFS60 cell M-CSF receptors.\nThe purified heterodimer was submitted to the NFS60 cell based bioassay described in Example 8. The calculated specific activity was 2.9×10^6 U/mg which correlated to a 35-fold reduction as compared to the activity of the parental M-CSF heterodimer described in Example 10. The relative binding affinity to cell surface M-CSF receptor was measured by radioligand displacement in which the displacement of ^125 I-M-CSF from an M-CSF receptor by an M-CSF mutein was measured using methods well known in the art. In brief, the following were added in a final volume of 100 μl in each well of a 96-well cell culture plate: approximately 80,000 cpm of purified recombinant human M-CSF labeled with ^125 I (using Iodobeads as described by the manufacturer, Pierce, Rockford, Ill.), 300,000 NFS-60 cells that had been washed and then grown for 18 hours in growth medium minus the normal maintenance level of M-CSF, plus unlabeled M-CSF that had been serially diluted in the same medium. The plates were incubated at 4° C. for 20 hours and the cells were collected on glass-fiber filters. Maximum binding was measured in the absence of unlabeled M-CSF and non-specific binding was measured in the presence of 1000-fold greater concentration of unlabeled M-CSF (compared to labeled M-CSF). The concentration of M-CSF required to inhibit 50% of the labeled M-CSF binding to the cells (IC50) was used to determine differences in affinity. Results are expressed as percent displacement of radioactive M-CSF versus mutein concentration (FIG. 7)."}, "[2]": {"assay": "Bioactivity after diethylpyrocarbonate (DEPC) modification of histidines", "conditions": "1:100 DEPC:histidine ratio"}}, "data": [{"molecule": "158/221F heterodimer: one chain of short clone (amino acid 4 to 158) and one chain of long clone 221F (protein, UniProt P09603 33-554, looked up, variant C157S C159S, heterodimer short/long clone, one chain of short clone (amino acid 4 to 158) and one chain of long clone 221F) Macrophage colony-stimulating …: EEVSEYCSHMIGSGHLQSLQRLIDSQMETSCQITFEFVDQEQLKDPVCYLKKAFLLVQDIMEDTMRFRDNTPNAIAIVQLQELSLRLKSCFTKDYEEHDKACVRTFYETPLQLLEKVKNVFNETKNLLDKDWNIFSKNCNNSFAECSSQDVVTKPDSNSLYPKAIPSSDPASVSPHQPLAPSMAPVAGLTWEDSEGTEGSSLLPGEQPLHTVDPGSAKQRPPRSTCQSFEPPETPVVKDSTIGGSPQPRPSVGAFNPGMEDILDSAMGTNWVPEEASGEASEIPVPQGTELSPSRPGGGSMQTEPARPSNFLSASSPLPASAKGQQPADVTGTALPRVGPVRPTGQDWNHTPQKTDHPSALLRDPPEPGSPRISSLRPQGLSNPSTLSAQPQLSRSHSSGSVLPLGELEGRRSTRDRRSPAEPEGGPASEGAARPLPRFNSVPLTDTGHERQSEGSFSPQLQESVFHLLVPSVILVLLAVGGLLFYRWRRRSHQEPQRADSPLEQPEGSPLTQDDRQVELPV", "values": [{"measurement": "specific activity", "setting": "NFS-60 cells; calculated using the peak fraction of preparative Phenyl-HPLC", "value": "8.0×10^7 units/mg"}, {"measurement": "biological activity of heterodimer compared to the two homodimers", "setting": "NFS-60 cells; refolded dimers, SE-HPLC (72 hr of refolding) or Phenyl-HPLC fractions", "value": "fully biologically active in vitro"}]}, {"molecule": "M-CSFαNΔ3CΔ158 H9A, H15A/M-CSFβNΔ3CΔ221C157S, C159S heterodimer: one subunit of M-CSFα NΔ3CΔ158 H9A, H15A and one subunit of M-CSFβ NΔ3CΔ221 C157S, C159S (protein, UniProt P09603 33-554, looked up, variant H9A H15A C157S C159S, heterodimer of truncated α and β forms) Macrophage colony-stimulating …: EEVSEYCSAMIGSGALQSLQRLIDSQMETSCQITFEFVDQEQLKDPVCYLKKAFLLVQDIMEDTMRFRDNTPNAIAIVQLQELSLRLKSCFTKDYEEHDKACVRTFYETPLQLLEKVKNVFNETKNLLDKDWNIFSKNCNNSFAECSSQDVVTKPDSNSLYPKAIPSSDPASVSPHQPLAPSMAPVAGLTWEDSEGTEGSSLLPGEQPLHTVDPGSAKQRPPRSTCQSFEPPETPVVKDSTIGGSPQPRPSVGAFNPGMEDILDSAMGTNWVPEEASGEASEIPVPQGTELSPSRPGGGSMQTEPARPSNFLSASSPLPASAKGQQPADVTGTALPRVGPVRPTGQDWNHTPQKTDHPSALLRDPPEPGSPRISSLRPQGLSNPSTLSAQPQLSRSHSSGSVLPLGELEGRRSTRDRRSPAEPEGGPASEGAARPLPRFNSVPLTDTGHERQSEGSFSPQLQESVFHLLVPSVILVLLAVGGLLFYRWRRRSHQEPQRADSPLEQPEGSPLTQDDRQVELPV", "values": [{"measurement": "fold increase of IC50 compared to M-CSFα NΔ3CΔ158", "setting": "[1]", "value": 30, "unit": "fold"}, {"measurement": "IC50", "setting": "[1]", "value": "~0.5", "unit": "nM"}, {"measurement": "fold reduction in specific activity compared to parental M-CSF heterodimer", "setting": "NFS-60 cells; Example 12", "value": 35, "unit": "fold"}, {"measurement": "calculated specific activity", "setting": "NFS-60 cells; Example 12, purified heterodimer", "value": "2.9×10^6 U/mg"}]}, {"molecule": "Q20A, V78K: double mutant of M-CSF, solvent accessible residues in central portion of helices A and C (protein, UniProt P09603 33-554, looked up, variant Q20A V78K) Macrophage colony-stimulating …: EEVSEYCSHMIGSGHLQSLARLIDSQMETSCQITFEFVDQEQLKDPVCYLKKAFLLVQDIMEDTMRFRDNTPNAIAIKQLQELSLRLKSCFTKDYEEHDKACVRTFYETPLQLLEKVKNVFNETKNLLDKDWNIFSKNCNNSFAECSSQDVVTKPDCNCLYPKAIPSSDPASVSPHQPLAPSMAPVAGLTWEDSEGTEGSSLLPGEQPLHTVDPGSAKQRPPRSTCQSFEPPETPVVKDSTIGGSPQPRPSVGAFNPGMEDILDSAMGTNWVPEEASGEASEIPVPQGTELSPSRPGGGSMQTEPARPSNFLSASSPLPASAKGQQPADVTGTALPRVGPVRPTGQDWNHTPQKTDHPSALLRDPPEPGSPRISSLRPQGLSNPSTLSAQPQLSRSHSSGSVLPLGELEGRRSTRDRRSPAEPEGGPASEGAARPLPRFNSVPLTDTGHERQSEGSFSPQLQESVFHLLVPSVILVLLAVGGLLFYRWRRRSHQEPQRADSPLEQPEGSPLTQDDRQVELPV", "values": [{"measurement": "IC50", "setting": "[1]", "value": "~0.1", "unit": "nM"}, {"measurement": "M-CSF receptor-binding ability", "setting": "[1]", "value": "decreased"}, {"measurement": "fold decrease in binding affinity", "setting": "[1]", "value": 5, "unit": "fold"}, {"measurement": "fold lower specific biological activity than parental M-CSFα reference standard", "setting": "NFS-60 cells; Example 11", "value": "8-10 fold"}, {"measurement": "specific biological activity", "setting": "NFS-60 cells; Example 11", "value": "1.4×10^7 U/mg"}]}, {"molecule": "M-CSF: macrophage colony stimulating factor, form not specified, treated with DEPC to modify histidines (protein, UniProt P09603 33-554, looked up, DEPC-modified histidines) Macrophage colony-stimulating …: EEVSEYCSHMIGSGHLQSLQRLIDSQMETSCQITFEFVDQEQLKDPVCYLKKAFLLVQDIMEDTMRFRDNTPNAIAIVQLQELSLRLKSCFTKDYEEHDKACVRTFYETPLQLLEKVKNVFNETKNLLDKDWNIFSKNCNNSFAECSSQDVVTKPDCNCLYPKAIPSSDPASVSPHQPLAPSMAPVAGLTWEDSEGTEGSSLLPGEQPLHTVDPGSAKQRPPRSTCQSFEPPETPVVKDSTIGGSPQPRPSVGAFNPGMEDILDSAMGTNWVPEEASGEASEIPVPQGTELSPSRPGGGSMQTEPARPSNFLSASSPLPASAKGQQPADVTGTALPRVGPVRPTGQDWNHTPQKTDHPSALLRDPPEPGSPRISSLRPQGLSNPSTLSAQPQLSRSHSSGSVLPLGELEGRRSTRDRRSPAEPEGGPASEGAARPLPRFNSVPLTDTGHERQSEGSFSPQLQESVFHLLVPSVILVLLAVGGLLFYRWRRRSHQEPQRADSPLEQPEGSPLTQDDRQVELPV", "values": [{"measurement": "bioactivity after DEPC modification of histidines", "setting": "[2]", "value": "significantly reduced bioactivity"}]}, {"molecule": "H9A, H15A: M-CSF NΔ3CΔ158 with His 9 and His 15 mutated to Ala, refolded dimer (pTAF172-2) (protein, UniProt P09603 33-554, looked up, variant H9A H15A, residues 4-158, dimer) Macrophage colony-stimulating …: EEVSEYCSAMIGSGALQSLQRLIDSQMETSCQITFEFVDQEQLKDPVCYLKKAFLLVQDIMEDTMRFRDNTPNAIAIVQLQELSLRLKSCFTKDYEEHDKACVRTFYETPLQLLEKVKNVFNETKNLLDKDWNIFSKNCNNSFAECSSQDVVTKPDCNCLYPKAIPSSDPASVSPHQPLAPSMAPVAGLTWEDSEGTEGSSLLPGEQPLHTVDPGSAKQRPPRSTCQSFEPPETPVVKDSTIGGSPQPRPSVGAFNPGMEDILDSAMGTNWVPEEASGEASEIPVPQGTELSPSRPGGGSMQTEPARPSNFLSASSPLPASAKGQQPADVTGTALPRVGPVRPTGQDWNHTPQKTDHPSALLRDPPEPGSPRISSLRPQGLSNPSTLSAQPQLSRSHSSGSVLPLGELEGRRSTRDRRSPAEPEGGPASEGAARPLPRFNSVPLTDTGHERQSEGSFSPQLQESVFHLLVPSVILVLLAVGGLLFYRWRRRSHQEPQRADSPLEQPEGSPLTQDDRQVELPV", "values": [{"measurement": "IC50", "setting": "[1]", "value": "~1000", "unit": "nM"}, {"measurement": "M-CSF receptor-binding ability", "setting": "[1]", "value": "greatly decreased"}, {"measurement": "fold decrease in binding affinity", "setting": "[1]", "value": "50,000 fold"}, {"measurement": "fold reduction in biological activity versus parental M-CSF NΔ3CΔ158", "setting": "NFS-60 cells; Example 10", "value": "~10,000 fold"}, {"measurement": "specific activity", "setting": "NFS-60 cells; Example 10, purified refolded mutein dimers, same assay as parental reference", "value": "7.6×10^3 U/mg"}]}]}
